Literature values as cited in paper PMC9010944.

Target: PDGF-BB (Homo sapiens) (UniProt P01127)
Sequence (P01127 82-190): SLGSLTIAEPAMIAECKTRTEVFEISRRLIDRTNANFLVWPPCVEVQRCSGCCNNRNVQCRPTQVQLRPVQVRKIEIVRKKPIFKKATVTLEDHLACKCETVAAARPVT

Perlecan domain III-2, sequence (P98160 924-1324): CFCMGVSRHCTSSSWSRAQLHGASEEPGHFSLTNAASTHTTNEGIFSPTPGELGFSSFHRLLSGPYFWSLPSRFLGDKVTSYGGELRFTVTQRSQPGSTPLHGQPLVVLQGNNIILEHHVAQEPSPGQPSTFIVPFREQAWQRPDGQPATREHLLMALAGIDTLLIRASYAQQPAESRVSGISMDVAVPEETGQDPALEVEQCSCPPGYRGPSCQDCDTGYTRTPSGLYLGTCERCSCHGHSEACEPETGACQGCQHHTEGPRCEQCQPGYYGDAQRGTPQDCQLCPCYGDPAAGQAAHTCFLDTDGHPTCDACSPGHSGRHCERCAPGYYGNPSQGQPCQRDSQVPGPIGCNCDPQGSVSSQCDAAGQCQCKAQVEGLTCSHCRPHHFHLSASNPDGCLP

Kd: 8 nM
Substance: Perlecan domain III-2 (from UniProt P98160)
